Measured values taken from publication PMC9482650, “Quantitative fragmentomics allow affinity mapping of interactomes” (Nature Communications, 2022).

Experiments:
Assay in all cases: holdup assay
Design in all cases: key: below the threshold = too weak to quantify, mostly under pKd 3.1 to 4
HTRA2, O43464 = target: HTRA2, O43464
GOPC, Q9HD26 = target: GOPC, Q9HD26
LIN7B, Q9HAP6 = target: T1, LIN7B, Q9HAP6
T1 sequence (Q9HAP6 88-185, limits assumed, looked up): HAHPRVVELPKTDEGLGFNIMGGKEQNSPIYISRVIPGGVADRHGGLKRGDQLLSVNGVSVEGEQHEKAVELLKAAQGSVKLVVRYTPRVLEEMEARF

DLG4_3, P78352 = target: DLG4_3, P78352
RAPGEF6, Q8TEU7 = target: T2, RAPGEF6, Q8TEU7
T2 sequence (Q8TEU7 525-625, limits assumed, looked up): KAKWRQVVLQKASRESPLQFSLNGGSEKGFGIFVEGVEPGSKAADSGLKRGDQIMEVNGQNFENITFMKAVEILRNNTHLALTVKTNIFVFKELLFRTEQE

TIAM2, Q8IVF5 = target: T3, TIAM2, Q8IVF5
T3 sequence (Q8IVF5 885-986, limits assumed, looked up): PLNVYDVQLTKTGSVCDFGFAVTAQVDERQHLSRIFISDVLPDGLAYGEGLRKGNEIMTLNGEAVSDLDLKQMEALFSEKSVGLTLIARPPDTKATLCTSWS

TJP2_1, Q9UDY2 = target: TJP2_1, Q9UDY2
GRIP2_4, Q9C0E4 = target: GRIP2_4, Q9C0E4
PCLO, Q9Y6V0 = target: T4, PCLO, Q9Y6V0
T4 sequence (Q9Y6V0 4491-4600, limits assumed, looked up): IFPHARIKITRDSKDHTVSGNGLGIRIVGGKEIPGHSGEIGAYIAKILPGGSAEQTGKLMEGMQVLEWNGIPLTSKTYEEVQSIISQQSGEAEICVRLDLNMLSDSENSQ

PDLIM1, O00151 = target: PDLIM1, O00151
SNTG1, Q9NSN8 = target: T5, SNTG1, Q9NSN8
T5 sequence (Q9NSN8 52-150, limits assumed, looked up): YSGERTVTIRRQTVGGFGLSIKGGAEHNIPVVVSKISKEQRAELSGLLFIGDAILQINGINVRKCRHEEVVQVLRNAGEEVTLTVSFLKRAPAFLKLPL

HTRA3, P83110 = target: T6, HTRA3, P83110
T6 sequence (P83110 354-453, limits assumed, looked up): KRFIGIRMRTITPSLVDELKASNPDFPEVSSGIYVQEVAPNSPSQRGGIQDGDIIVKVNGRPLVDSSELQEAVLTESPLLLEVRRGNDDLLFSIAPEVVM

FRMPD2_2, Q68DX3 = target: FRMPD2_2, Q68DX3
SCRIB_3, Q14160 = target: SCRIB_3, Q14160
LNX1_1, Q8TBB1 = target: LNX1_1, Q8TBB1
DLG4_2, P78352 = target: DLG4_2, P78352
IL16_4, Q14005 = target: IL16_4, Q14005
TX1BP3, O14907 = target: T7, TX1BP3, O14907
T7 sequence (O14907 10-122, limits assumed, looked up): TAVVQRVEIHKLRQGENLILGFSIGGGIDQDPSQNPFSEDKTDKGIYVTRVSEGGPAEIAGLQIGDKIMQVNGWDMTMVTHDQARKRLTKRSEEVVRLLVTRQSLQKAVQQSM

Inadl_9, Q8NI35 = target: Inadl_9, Q8NI35
MAGI2_3, Q86UL8 = target: MAGI2_3, Q86UL8
TJP1_3, Q07157 = target: TJP1_3, Q07157
LAP2, Q96RT1 = target: LAP2, Q96RT1
Inadl_6, Q8NI35 = target: Inadl_6, Q8NI35
NHERF4_2, Q86UT5 = target: NHERF4_2, Q86UT5
Inadl_1, Q8NI35 = target: Inadl_1, Q8NI35
PDZD2_2, O15018 = target: T8, PDZD2_2, O15018
T8 sequence (O15018 329-429, limits assumed, looked up): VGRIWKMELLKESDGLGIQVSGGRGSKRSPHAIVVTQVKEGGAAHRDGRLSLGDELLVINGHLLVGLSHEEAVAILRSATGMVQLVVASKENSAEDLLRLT

DLG3_1, Q92796 = target: T9, DLG3_1, Q92796
T9 sequence (Q92796 125-227, limits assumed, looked up): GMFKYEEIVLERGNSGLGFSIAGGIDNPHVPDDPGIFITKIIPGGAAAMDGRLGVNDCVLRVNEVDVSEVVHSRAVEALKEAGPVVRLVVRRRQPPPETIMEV

FRMPD2_1, Q68DX3 = target: FRMPD2_1, Q68DX3
[1] = plain residues with an end cap or a label only (N-terminal biotin on a linker: ado-ado)
[2] = plain residues with an end cap or a label only (N-terminal biotin on a linker: ahx)

Measured: pKd

Chain of LAP2, Q96RT1 (Q96RT1 other isoform, or with tags, fused parts or gaps): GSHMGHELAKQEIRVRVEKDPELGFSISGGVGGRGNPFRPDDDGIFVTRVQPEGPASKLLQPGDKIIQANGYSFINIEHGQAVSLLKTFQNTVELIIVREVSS
Chain of TJP2_1, Q9UDY2 (Q9UDY2 24-128): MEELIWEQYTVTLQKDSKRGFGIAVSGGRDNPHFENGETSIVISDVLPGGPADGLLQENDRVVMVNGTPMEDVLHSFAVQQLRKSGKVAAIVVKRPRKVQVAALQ
Chain of LNX1_1, Q8TBB1 (Q8TBB1 261-371): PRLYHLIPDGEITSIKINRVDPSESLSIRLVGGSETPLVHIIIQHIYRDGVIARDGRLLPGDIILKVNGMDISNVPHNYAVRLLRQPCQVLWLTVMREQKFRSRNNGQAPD
Chain of DLG4_3, P78352 (P78352 306-403): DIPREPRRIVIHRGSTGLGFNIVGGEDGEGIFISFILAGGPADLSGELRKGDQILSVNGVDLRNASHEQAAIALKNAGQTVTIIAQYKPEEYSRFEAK
Chain of SCRIB_3, Q14160 (Q14160 999-1103): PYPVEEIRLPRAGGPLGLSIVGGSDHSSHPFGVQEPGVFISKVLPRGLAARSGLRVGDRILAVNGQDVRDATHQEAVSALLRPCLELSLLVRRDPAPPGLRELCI
Chain of MAGI2_3, Q86UL8 (Q86UL8 600-682): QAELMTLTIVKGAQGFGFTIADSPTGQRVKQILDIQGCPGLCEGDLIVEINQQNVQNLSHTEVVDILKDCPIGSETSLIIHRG
Chain of GRIP2_4, Q9C0E4 (Q9C0E4 446-548): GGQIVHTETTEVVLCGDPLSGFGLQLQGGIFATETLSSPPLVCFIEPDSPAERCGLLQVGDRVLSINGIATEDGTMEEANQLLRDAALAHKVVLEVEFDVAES
Chain of NHERF4_2, Q86UT5 (Q86UT5 220-308): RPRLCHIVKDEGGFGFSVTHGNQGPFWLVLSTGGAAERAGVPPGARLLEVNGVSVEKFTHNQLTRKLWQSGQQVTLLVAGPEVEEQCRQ
Chain of FRMPD2_1, Q68DX3 (Q68DX3 770-861): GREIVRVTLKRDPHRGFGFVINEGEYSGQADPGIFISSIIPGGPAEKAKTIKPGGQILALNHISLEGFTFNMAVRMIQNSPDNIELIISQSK
Chain of Inadl_6, Q8NI35 (Q8NI35 1058-1167): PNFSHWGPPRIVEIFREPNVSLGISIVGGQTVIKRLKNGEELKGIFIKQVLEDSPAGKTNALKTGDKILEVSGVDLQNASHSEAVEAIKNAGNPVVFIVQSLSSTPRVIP
Chain of Inadl_9, Q8NI35 (Q8NI35 1530-1615): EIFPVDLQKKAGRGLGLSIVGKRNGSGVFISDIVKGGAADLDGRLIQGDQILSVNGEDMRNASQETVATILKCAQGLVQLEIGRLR
Chain of HTRA2, O43464 (O43464 355-458): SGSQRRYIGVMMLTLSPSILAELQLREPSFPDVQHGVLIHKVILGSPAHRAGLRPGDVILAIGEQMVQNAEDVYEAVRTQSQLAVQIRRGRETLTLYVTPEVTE
Chain of DLG4_2, P78352 (P78352 155-259): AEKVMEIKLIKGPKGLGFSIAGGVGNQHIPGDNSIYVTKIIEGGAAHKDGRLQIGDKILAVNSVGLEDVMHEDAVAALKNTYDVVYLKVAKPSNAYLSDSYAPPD
Chain of TJP1_3, Q07157 (Q07157 416-512): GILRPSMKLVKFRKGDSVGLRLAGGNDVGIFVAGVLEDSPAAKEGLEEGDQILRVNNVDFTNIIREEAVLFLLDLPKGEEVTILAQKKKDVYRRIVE
Chain of Inadl_1, Q8NI35 (Q8NI35 113-229): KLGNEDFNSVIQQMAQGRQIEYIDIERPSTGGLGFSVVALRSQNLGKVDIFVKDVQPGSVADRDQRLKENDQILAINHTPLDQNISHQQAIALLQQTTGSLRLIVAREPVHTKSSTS
Chain of FRMPD2_2, Q68DX3 (Q68DX3 944-1038): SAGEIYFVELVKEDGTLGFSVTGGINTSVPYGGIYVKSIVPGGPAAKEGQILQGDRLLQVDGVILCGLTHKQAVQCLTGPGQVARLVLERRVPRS
Chain of PDLIM1, O00151 (O00151 1-87): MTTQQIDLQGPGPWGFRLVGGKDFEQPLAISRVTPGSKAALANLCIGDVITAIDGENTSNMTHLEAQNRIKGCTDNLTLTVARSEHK
Chain of IL16_4, Q14005 (Q14005 1229-1329): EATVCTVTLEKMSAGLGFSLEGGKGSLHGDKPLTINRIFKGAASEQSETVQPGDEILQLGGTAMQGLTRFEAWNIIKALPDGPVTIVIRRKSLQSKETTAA

VLYPREGTEV [FOXI1, Q12951]
4.62: DLG4_2, P78352; [1]
4.13: SNTG1, Q9NSN8; [1]
4.36: SCRIB_3, Q14160; [1]
3.81: PDLIM1, O00151; [1]
3.86: FRMPD2_1, Q68DX3; [1]
4.03: Inadl_9, Q8NI35; [1] | DLG3_1, Q92796; [1]
4.93: PDZD2_2, O15018; [1]
3.73: TX1BP3, O14907; [1]
4.17: LNX1_1, Q8TBB1; [1]
4: TJP2_1, Q9UDY2; [1]
3.52: GOPC, Q9HD26; [1] | LAP2, Q96RT1; [1]
below the threshold: HTRA2, O43464; [1] | LIN7B, Q9HAP6; [1] | RAPGEF6, Q8TEU7; [1] | TIAM2, Q8IVF5; [1] | GRIP2_4, Q9C0E4; [1] | PCLO, Q9Y6V0; [1] | HTRA3, P83110; [1] | IL16_4, Q14005; [1] | MAGI2_3, Q86UL8; [1] | TJP1_3, Q07157; [1] | Inadl_6, Q8NI35; [1] | NHERF4_2, Q86UT5; [1] | Inadl_1, Q8NI35; [1]
3.57: DLG4_3, P78352; [1]
3.54: FRMPD2_2, Q68DX3; [1]

MHIQEKGFHV [EPHA6, Q9UF33]
3.55: IL16_4, Q14005; [1]
below the threshold: HTRA2, O43464; [1] | GOPC, Q9HD26; [1] | LIN7B, Q9HAP6; [1] | DLG4_3, P78352; [1] | RAPGEF6, Q8TEU7; [1] | TIAM2, Q8IVF5; [1] | TJP2_1, Q9UDY2; [1] | GRIP2_4, Q9C0E4; [1] | PCLO, Q9Y6V0; [1] | PDLIM1, O00151; [1] | SNTG1, Q9NSN8; [1] | FRMPD2_2, Q68DX3; [1] | SCRIB_3, Q14160; [1] | LNX1_1, Q8TBB1; [1] | DLG4_2, P78352; [1] | TX1BP3, O14907; [1] | Inadl_9, Q8NI35; [1] | MAGI2_3, Q86UL8; [1] | TJP1_3, Q07157; [1] | LAP2, Q96RT1; [1] | Inadl_6, Q8NI35; [1] | NHERF4_2, Q86UT5; [1] | Inadl_1, Q8NI35; [1] | PDZD2_2, O15018; [1] | DLG3_1, Q92796; [1] | FRMPD2_1, Q68DX3; [1]
3.61: HTRA3, P83110; [1]

SLNANEVEWF [RNF130, Q86XS8]
3.89: LIN7B, Q9HAP6; [1]
3.96: SCRIB_3, Q14160; [1]
below the threshold: GOPC, Q9HD26; [1] | DLG4_3, P78352; [1] | GRIP2_4, Q9C0E4; [1] | PCLO, Q9Y6V0; [1] | PDLIM1, O00151; [1] | SNTG1, Q9NSN8; [1] | IL16_4, Q14005; [1] | TX1BP3, O14907; [1] | Inadl_9, Q8NI35; [1] | TJP1_3, Q07157; [1] | LAP2, Q96RT1; [1] | NHERF4_2, Q86UT5; [1] | DLG3_1, Q92796; [1] | FRMPD2_1, Q68DX3; [1]
4.86: PDZD2_2, O15018; [1]
4.16: TIAM2, Q8IVF5; [1]
3.75: LNX1_1, Q8TBB1; [1]
3.52: Inadl_1, Q8NI35; [1]
4.68: HTRA3, P83110; [1]
3.67: TJP2_1, Q9UDY2; [1]
3.61: RAPGEF6, Q8TEU7; [1]
3.59: FRMPD2_2, Q68DX3; [1]
3.57: Inadl_6, Q8NI35; [1]
3.7: MAGI2_3, Q86UL8; [1]
3.51: HTRA2, O43464; [1] | DLG4_2, P78352; [1]

EKQAKGDTEF [CACYBP, Q9HB71]
below the threshold: HTRA2, O43464; [2] | GOPC, Q9HD26; [2] | LIN7B, Q9HAP6; [2] | DLG4_3, P78352; [2] | RAPGEF6, Q8TEU7; [2] | TIAM2, Q8IVF5; [2] | TJP2_1, Q9UDY2; [2] | GRIP2_4, Q9C0E4; [2] | PCLO, Q9Y6V0; [2] | PDLIM1, O00151; [2] | SNTG1, Q9NSN8; [2] | HTRA3, P83110; [2] | FRMPD2_2, Q68DX3; [2] | SCRIB_3, Q14160; [2] | LNX1_1, Q8TBB1; [2] | DLG4_2, P78352; [2] | IL16_4, Q14005; [2] | TX1BP3, O14907; [2] | Inadl_9, Q8NI35; [2] | MAGI2_3, Q86UL8; [2] | TJP1_3, Q07157; [2] | LAP2, Q96RT1; [2] | Inadl_6, Q8NI35; [2] | NHERF4_2, Q86UT5; [2] | Inadl_1, Q8NI35; [2] | PDZD2_2, O15018; [2] | DLG3_1, Q92796; [2] | FRMPD2_1, Q68DX3; [2]
